Source: the nanobody polyreactivity screen of Harvey et al. (2022)

Experiment: yeast display, Sf9 membrane polyspecificity reagent, FACS + sequencing; frameworks hold sequencing errors
Method in brief: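 Polyreactivity labels are assigned by the sorting gate from which each nanobody was recovered. The gates were low and high (top ~1%), set on anti-HA fluorescence for expression and streptavidin fluorescence for reagent binding. Before sorting, galactose-induced (36–48 hours) yeast display cells were stained for 1 hour at 4 °C with 10% biotinylated, detergent-solubilized Sf9 membrane reagent.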

Sequence | polyreactivity (PSR sort gate)
QVQLVESGGGLVQAGGSLRLSCASSGFTFPFYAMGWYRQAPGKESELVAAISWSGGSTYYADSVKGRFTISRDNAKNTVYLQMNSLKPEDTAVYYCAAEYISSPLGYDYWGQGTQVTVSS | high polyreactivity
QVQLVESGGGLVQAGGSLRLSCASSGFTFSLYARGWYSQAPGKEMELVAAISQRGGSTYYADSVKGRFTISRDNAKNTDYLQMNSLKPEDTAVYYCNDYAQVSYGTYDYWGQGTQVTVSS | high polyreactivity
QVQLVESGGGLVQAGGSLRLSCASSGGISYYYYAMGWYRQAPGKERELVAAISSDDDTYYADSVKGRFTISRDNAKNTVYLQMNSLKPEDTAVYYCAAEYDVVGPSIYGYLFYYWGQGTQVTVSS | high polyreactivity
QVQLVESGGGLVQAGGSLRLSCASSGGTFGSYAMGWYRHAPGKERELVAAIRSGDRTYYADSVKGRFTISRDNAKNTVYLQMNSLKPEDTAVYYCAAFYHHYYRYDYWGQGTQVTVSS | low polyreactivity
QVQLVESGGGLVQAGGSLRLSCASSGGTFSTYAMGWYRQAPGKERELVAAISSTGGSTYYADSVKGRFTISGDNAKNTVYLQMNSLKPEDTAVYYCAAYYSRGWLLYWDEMYFWGQGTQVTVSS | high polyreactivity
QVQLVESGGGLVQAGGSLRLSCASSGITFGRNTMGWYRQAPGKERELVAAIDSGGNTYADSVKGRFTISRDNAKNTVYLQMNSLKPEDTAVYYCDVDGGEFSSYGYWGQGTQVTVSS | low polyreactivity
QVQLVESGGGLVQAGGSLRLSCASSGITFGVYAMGWYRQAPGKERELVAAISRRGAYTYYADSVKGRFTISRDNGKNTVYLQMNSLKPEDTAVYYCAAYLARRQYDYWGQGTQVTVSS | high polyreactivity
QVQLVESGGGLVQAGGSLRLSCASSGITFRVYAMGWYRQAPGKERELVAGISRGGRTSYADSVKGRFTISRDNAKNTVYLQMNSLKPEDTAVYYCAARQYRHRVKYYYWGQGTQVTVSS | high polyreactivity
QVQLVESGGGLVQAGGSLRLSCASSGITFYVYAMGWYRQAPGKERELVASISWNGGRTYYADSVKGRFTISRDNAKNTVYLQMNSLKPEDTAVYYCAARAYSYWSGLDYWGQGTQVTVSS | high polyreactivity
QVQLVESGGGLVQAGGSLRLSCASSGLIFQYYVKGWYRQAPGKERELVAAISARGGGTYYADSVKGRFTISRDNAKNTVYLQMISLKPEDTAVYYCAADPVYAGPGYDYWGQGTQVTVSS | high polyreactivity
QVQLVESGGGLVQAGGSLRLSCASSGLTFRNYAMGGYRPAPGKERELVAAITVSGGSTYYADSVKGRFTISRDNAKNTVYLQMNSLKPEDTAVYYCAARVIHTTYSRNYYYWGQGTQVTVSS | high polyreactivity
QVQLVESGGGLVQAGGSLRLSCASSGLTFYGNAMVWYRPAPGKERELVAAISSSGGTTYYADSVKGRFTISRDNAKNTVYLQMTSLKPEDTAVYYCAARPSGGYESTRTRDYWGQGTQVTVSS | low polyreactivity
QVQLVESGGGLVQAGGSLRLSCASSGNIFRKYAMAWYRQAPGKERELVAITSGTNTYYADSVKGRFTISRDNAKNTVYVQMNSLKPEDSAVYYCNKSGFRSSHKYDYWGQGTQVTVSS | low polyreactivity
QVQLVESGGGLVQAGGSLRLSCASSGNTFVDYAMGWFRQAPGKETELVAAISDGGSTNYADSVKGRFTISRDNAKNTVDLQMNSLKPEDTEVYYCAKDELYIPGVWPYYEYDYWGQGTQVTVSS | low polyreactivity
QVQLVESGGGLVQAGGSLRLSCASSGRIFKKYAMGWYIQAPGKERELVATISSGGSTYYADSVKGRFTISRDNAKNTVYLQMNSLKREDTAGSYCARREYVRRDYFVTTYDYWGQGTQVTVSS | low polyreactivity
QVQLVESGGGLVQAGGSLRLSCASSGRIFKYNAMGWYRQAPGKERELVAAISSSGARTYYADSVKGRFTISRDNAKNTVYLQMNSLKPEDTAVDYCAAPFTSNRSIRPYGYWGQGTQVTVSS | high polyreactivity
QVQLVESGGGLVQAGGSLRLSCASSGRIFPYYAMGRYRQAPGKERDLVAAITSVGSTNYADSVKGRFTISRDNAKNTVYLQINSLKPEDTAVYYCAAESTEGTSGDYDYWAQGTQVTVSS | low polyreactivity
QVQLVESGGGLVQAGGSLRLSCASSGRIFQYYVKGWYRQAPGKERELVAAITSGGGTKYADSVKGRFTISRDNENNTVYLQMNSLKPEDTAVYYCAAAWFDQYSRYDYWGQGTQVTVSS | low polyreactivity
QVQLVESGGGLVQAGGSLRLSCASSGRIFVFNAMGWYRPAPGKERELVAAINWSGGTTYYADSVKGRFTISRDNAKNTVYLQMNSVNPEDTAVYYCNAYLNRRMGYWGQGTQVTVSS | high polyreactivity
QVQLVESGGGLVQAGGSLRLSCASSGRIFYGYAMVWYRQAPGKERELVAAIRWYGGNTYYADSVKGRFTISRDNAKNTVYLQMNSLKPEDTAVYYCAARAYYARFVMGYWGQGTQVSVSS | high polyreactivity

Sequence | polyreactivity (PSR sort gate)
QVQLVESGGGLVQAGGSLRLSCASSGRTFGLYDMGWYRQAPGKERELVAGITRRGGRTYYADSVKGRFTISRDNAKNPVELLMHCRKPEDTAVYYCNKVVTRWNQRWRYSEGNYWGQGTQVTVSS | high polyreactivity
QVQLVESGGGLVQAGGSLRLSCASSGRTFPAYAMGWYRPAPGKERELVAAISSSGSRTYYAASVKGRFTISRDNAKNTVYLQMNRLIPEDTAVYYCAARGGRRQKVNRDDYWGQVTQVTVSS | high polyreactivity
QVQLVESGGGLVQAGGSLRLSCASSGRTFPGNAMGWYRPAPGKERELVAAISWSGTRTYYADSVKGRFTISRDNAKNTVSLKMNSLKPEDTAVYSCNVVVKGAWDYYPYDYWGQGTQVTVSS | high polyreactivity
QVQLVESGGGLVQAGGSLRLSCASSGRTFRPYAKGWYRPAPGKDRELVAAITGGTRTYYADSVKGRFTISRDNAKNTVYLQMNSLKPEDTAGYYCAKGDFFSKHDYWGQGTQVTVSS | low polyreactivity
QVQLVESGGGLVQAGGSLRLSCASSGRTFRRYARGWYRQAPGKERELVATIRSGDNTNYADSVKGRFTISRDNAKNTVYLQMNSLKPEDTAVYYCNRSPKSGQVTYLYSVNAHYDYWGQGTQVTVSS | low polyreactivity
QVQLVESGGGLVQAGGSLRLSCASSGRTFRYYAKGWYRQAPGKERELVATISSGGSTNYADSVKGRFTISRDNAKNTVYFQMNSLKPEDTAVYYCAAAKYVTYLSIYYYWGQGTQVTVSS | high polyreactivity
QVQLVESGGGLVQAGGSLRLSCASSGRTFTYNAMGWYRQAPGKERELVAVIRYSGGTTYYADSVKGRFTISRDNAKNTVYFQMNRLIPEDTAVYYCAADSWSRSVNYYYWGQGTQVTVSS | low polyreactivity
QVQLVESGGGLVQAGGSLRLSCASSGRTFVFYAMGWYRHAPGKERELVAAITSGTSTNYADSVKGRFTISRDNAKNTVYLQMISLKPEDTAVYYCAAYWTDVTYSIGFGYWGQGTQVTVSS | low polyreactivity
QVQLVESGGGLVQAGGSLRLSCASSGSIFGGNAMGWYRQAPGKERELVAAITQSGDRTYYADSVKGRFTISRDNAKNTVYLQMNSLKPEDTAVYYCAARSPRKYGSIGYYWGQGTEVTVSS | high polyreactivity
QVQLVESGGGLVQAGGSLRLSCASSGSIFTGNVMGWYRQAPGKERELVAAISSRGGNTYYADSVKGRFTISRDNAKNTVYLQMNSLKPEDTAVYYCNKVKYTWYDWGQGTQVTVSS | high polyreactivity
QVQLVESGGGLVQAGGSLRLSCASSGSNFGRYAMGWYRQAPGKEREFVAAISRSSDNTSYADSVKGRFTISRDIAKNTVYLQMNRLNPEDRAVYYCNADRPFSLGQRKYVDFDEPYNYWGQGTQVTVSS | low polyreactivity
QVQLVESGGGLVQAGGSLRLSCASSGSTFFTNVMVRYRQAPGKERELVAAIDQRDGRTYYADSVKGRFTISRDNAKNTVYLQMNSLKPEDTAVYYSNAGTDGYQFYFGFADYDYWGQGTQVTVSA | low polyreactivity
QVQLVESGGGLVQAGGSLRLSCASSGSTFISYAMGWYRPAPGKERELVAAISRRGDSTYYADSVKGRFTISRDNAKNTVYLQMNSLKPEDSAVYYCNAVEWDDYYYSYADYGYSYDYWGQGTQVTVSS | low polyreactivity
QVQLVESGGGLVQAGGSLRLSCASSGSTFPGNAMGWYRQAPGKERELVAAIRDRGTSTYYADSVKGRFTISRDNAKNNVYLQMNSLKPEDTAVYYCAAASRVAKGRWRLYDDWGQGTQVTVSS | high polyreactivity
QVQLVESGGGLVQAGGSLRLSCASSGSTFPRYAMGWYRPAPGKETELVAAISSSGRTYYADSVKGRFTISRDNAKNTVFLQMNSLKPEDTAVYYCNAPVARGEASYYWGQGTQVTVSS | high polyreactivity
QVQLVESGGGLVQAGGSLRLSCASSGSTFSIYAMGWYRQAPGKERELVAGISGSGGSTYYADSVKGRFTISRDNAKNTVYLQMNSLKPEDTAVYYCAKRVLWGLDYWGQGTQVTVSS | low polyreactivity
QVQLVESGGGLVQAGGSLRLSCASSGSTFVPNTLGWYRQAPGKERELVAAISRSGGSTYYADSVKGRFTISRDNAKNTVYLQMNSLKPEDTAVYYCAARRFGYQGFAYGYWGQGTQVTVSS | high polyreactivity
QVQLVESGGGLVQAGGSLRLSCASSGSTFVYNVMGRYRQAPGKERDLVAAISRSGGSTYYADSVKGRFTISRDNAKNSVYLQMNSLKPEDTAVYYCAKRVYGWWYDHWGQGTQVTVSS | high polyreactivity
QVQLVESGGGLVQAGGSLRLSCASSGSTFYFNAMGWYRQAPGKERELVAAITSSGGTTYYADSVKGRFTISRDNAKNTVYLQMNSLKPEDTAVFYCADWFSAYYSLYRHRGYWGHGTQVTVSS | low polyreactivity
QVQLVESGGGLVQAGGSLRLSCASSGSTFYWNGMGWYRQAPGKERDLVADITWSGTSTNYADSVKGRFTISRDNAKNTVYLQMNSLKPEDTAVYYCAVSDFGLRDSLTIYDEYDYWGQGTQVTVSS | high polyreactivity
